Tests used:
[1] = biological target: beta1-adrenergic receptor TIL (UniProt P08588); details: cited from earlier work
[2] = biological target: T1, full-length rat endophilin A1 (C108S, E241C, C294S, C295S), labeled with Alexa 594-maleimide (rat, UniProt O35179 1-352, C108S | E241C | C294S | C295S, Alexa 594-maleimide on the cysteine (E241C)); assay: confocal fluorescence imaging of recruitment to peptide-conjugated GUVs; TIL-Alexa 488 covalently conjugated (cysteine-maleimide) to GUVs of MCC-PE/DOPC/DiD 5:94.5:0.5; Alexa 594-labeled protein added in solution; HEPES buffer (20 mM HEPES, 150 mM NaCl, 1 mM TCEP, pH 7.4); room temperature; details: both partners purified
T1 construct: endophilin A1, rat, full length; The introduction calls endophilin a dimeric protein; also called endophilin-Alexa 594; single cysteine mutant of rat endophilin A1
T1 sequence (O35179 whole entry C108S/E241C/C294S/C295S): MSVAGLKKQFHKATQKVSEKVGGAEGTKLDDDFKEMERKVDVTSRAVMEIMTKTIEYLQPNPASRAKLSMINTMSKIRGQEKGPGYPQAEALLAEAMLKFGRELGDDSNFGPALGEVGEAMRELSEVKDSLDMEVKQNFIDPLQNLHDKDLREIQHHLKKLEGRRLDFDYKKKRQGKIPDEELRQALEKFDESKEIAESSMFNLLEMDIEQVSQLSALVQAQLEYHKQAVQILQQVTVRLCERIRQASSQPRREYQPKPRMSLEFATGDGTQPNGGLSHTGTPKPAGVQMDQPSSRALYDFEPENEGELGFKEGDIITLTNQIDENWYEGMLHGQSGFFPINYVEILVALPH

endophilin A1, sequence (Q99962 whole entry): as the sequence (O35179 whole entry C108S/E241C/C294S/C295S) above, with S108C, M133I, C241E, A266P, G270S, A286S, S294C, S295C, Q335H counted along it

binding result [2]	Molecule	Kd [1] [nM]
–	endophilin A1 (from UniProt Q99962)	47
binds	third intracellular loop (TIL) of the β1-adrenergic receptor (amino acids 246–325), labeled with Alexa 488 (domain or fragment, UniProt P08588 246-325, looked up, Alexa 488 on the N-terminal amine (30 to 50% labeling); Cys261 coupled to the maleimide lipid MCC-PE in the experiments with TIL-conjugated vesicles, β1-adrenergic receptor, third intracellular loop, amino acids 246–325, cloned from the pcDNA3-Flag beta-1-adrenergic-receptor vector; 80 residues, 8861 Da; Cloned into BamHI/EcoRI of pGEX6p1 and cut with PreScission protease, so a few vector residues may remain at the N-terminus (surmise); also called TIL peptide; TIL-Alexa 488; source: E. coli BL21-CodonPlus (DE3)-RIL, purified (GST trap, …)) RVFREAQKQVKKIDSCERRFLGGPARPPSPSPSPVPAPAPPPGPPRPAAAAATAPLANGRAGKRRPSRLVALREQKALKT	–
